Test results as given in article PMC9569620, “OsNAC15 Regulates Tolerance to Zinc Deficiency and Cadmium by Binding to OsZIP7 and OsZIP10 in Rice”.

T1: GST-OsNAC15 (Oryza sativa, UniProt K9LKF1 1-301)
T1 sequence: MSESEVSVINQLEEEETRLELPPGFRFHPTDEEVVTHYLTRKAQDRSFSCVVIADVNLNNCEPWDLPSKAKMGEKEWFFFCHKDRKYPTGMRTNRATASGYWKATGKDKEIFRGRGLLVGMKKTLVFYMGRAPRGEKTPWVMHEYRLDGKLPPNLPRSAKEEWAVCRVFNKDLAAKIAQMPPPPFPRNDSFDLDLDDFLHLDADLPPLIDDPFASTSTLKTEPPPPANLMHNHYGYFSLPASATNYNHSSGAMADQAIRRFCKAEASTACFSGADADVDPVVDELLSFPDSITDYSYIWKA

B1: OsZIP10 probe (dsDNA)
DNA 1: TCGCGCCATGGTGTCGACACGGCCATCTCT
DNA 2: AGAGATGGCCGTGTCGACACCATGGCGCGA
B2: OsZIP10 cold competitor (dsDNA)
DNA 1: B1 DNA 1
DNA 2: B1 DNA 2

Assays:
GST-OsNAC15 [1] = target: T1, GST-OsNAC15; assay: EMSA; EMSA: 20 uL reaction, room temperature, 20 min; 6.5% polyacrylamide gel in 0.5x TBE, 1 h; buffer, salt and pH not stated (LightShift Chemiluminescent EMSA kit); details: protein: recombinant; tags: N-term GST (pGEX-4T1); chain copies: 2; label: biotin at 5' of F strand; biotin printed at 3' end of R strand; blunt
GST-OsNAC15 [2] = target: T1, GST-OsNAC15; assay: competition; 25-fold molar excess over labeled OsZIP10 probe; complex band weaker; EMSA: 20 uL reaction, room temperature, 20 min; 6.5% polyacrylamide gel in 0.5x TBE, 1 h; buffer, salt and pH not stated (LightShift Chemiluminescent EMSA kit); details: protein: recombinant; tags: N-term GST (pGEX-4T1); chain copies: 2; label: none; blunt

| Binder | binding result (GST-OsNAC15 [1]) | binding result (GST-OsNAC15 [2]) |
| --- | --- | --- |
| B1 | binds |  |
| B2 |  | binds |
